In the supplement of paper PMC10126150:
± gives the standard deviation of the averaged measurements.

Tested on: ATP
Assay: switch fluorescence ratio, 500 uM ATP over buffer (Cy3 cluster intensity, sum of 5 cycles each) (fold (ratio)); higher = stronger signal-on switching upon ATP binding; sequences stand for … in TCGTCGGCAGCGTCAGATGTGTATAAGAGACAGTTTTTTTTTTTTTTTTTTTTTTTTT…TC
Conditions: aptamer strand: ATP DNA aptamer (quencher-CACCTGGGGGAGTATTGCGGAGGAAGG + anchor), 100 nM annealed; ATP concentration: 500 uM
How it was run: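 For every switch-domain sequence, the fluorescence ratio is the mean of per-cluster values, each being summed target-cycle Cy3 intensity over summed buffer-cycle Cy3 intensity. Clusters outside 100-1000 RFU were excluded. On a modified Illumina MiSeq flow-cell, the Cy3-labelled switching-strand clusters were annealed to 100 nM quencher-labelled ATP aptamer, imaged in selection buffer and then after 15 min with 500 uM ATP at 22 °C. Five such cycles were run, with NaOH stripping and re-annealing between them.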
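Note: ATP exposure 15 min at 22 °C before imaging.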

With CGTGTGGAAA the switch fluorescence ratio was 1.02 ± 0.018.

For CGTGTTAACT, the switch fluorescence ratio was 0.992 ± 0.047.

In the case of CGTGTTAGGG, the switch fluorescence ratio is reported as 1.0062 ± 0.00077.

In the case of CGTGTTGGAT, the switch fluorescence ratio is reported as 0.997 ± 0.062.

CGTGTTGGG gave a switch fluorescence ratio of 1 ± 0.028.

In the case of CGTGTTGGGT, the switch fluorescence ratio is reported as 0.998 ± 0.048.

CGTGTTGTAG gave a switch fluorescence ratio of 1.02 ± 0.017.

In the case of CGTGTTGTGG, the switch fluorescence ratio is reported as 0.97 ± 0.067.

CGTGTTTGTG was tested, and the switch fluorescence ratio was 0.999 ± 0.067.

CGTGTTTTTC showed a switch fluorescence ratio of 0.996 ± 0.026.

In the case of CGTTAAGGGT, the switch fluorescence ratio is reported as 0.98 ± 0.031.

With CGTTAAGTGG the switch fluorescence ratio was 0.973 ± 0.04.

Work on CGTTAATAGC yielded a switch fluorescence ratio of 1.14 ± 0.019.

In the case of CGTTACGAGC, the switch fluorescence ratio is reported as 1.04 ± 0.059.

CGTTACGGGG showed a switch fluorescence ratio of 0.9788 ± 0.0055.

CGTTACGTGT showed a switch fluorescence ratio of 1.026 ± 0.0042.

Work on CGTTAGATT yielded a switch fluorescence ratio of 0.967 ± 0.011.

CGTTAGATTG was tested, and the switch fluorescence ratio was 0.998 ± 0.051.

CGTTAGGGTA was tested, and the switch fluorescence ratio was 0.9911 ± 0.003.

CGTTAGTAAG gave a switch fluorescence ratio of 0.982 ± 0.033.

CGTTATCGGA gave a switch fluorescence ratio of 1 ± 0.041.

CGTTATGCCT was tested, and the switch fluorescence ratio was 0.975 ± 0.061.

CGTTATTGAA showed a switch fluorescence ratio of 0.9834 ± 0.0067.

In the case of CGTTCAAGTT, the switch fluorescence ratio is reported as 1 ± 0.024.

With CGTTCAATGG the switch fluorescence ratio was 1.23 ± 0.05.

Sequence CGTTCCCGTG has a switch fluorescence ratio of 0.9811 ± 0.0031.

For CGTTCGACTG, the switch fluorescence ratio was 0.97 ± 0.025.

CGTTCTTCGC showed a switch fluorescence ratio of 1.07 ± 0.094.

CGTTGAGGTT gave a switch fluorescence ratio of 0.979 ± 0.026.

CGTTGCAGT gave a switch fluorescence ratio of 0.986 ± 0.011.

Sequence CGTTGCGGGG has a switch fluorescence ratio of 0.9751 ± 0.0073.

CGTTGCTCCC was tested, and the switch fluorescence ratio was 1.3 ± 0.49.

CGTTGCTTGG showed a switch fluorescence ratio of 1 ± 0.046.

Work on CGTTGGGGAG yielded a switch fluorescence ratio of 1.02 ± 0.03.

With CGTTGGGGT the switch fluorescence ratio was 0.986 ± 0.019.

In the case of CGTTGGGGTT, the switch fluorescence ratio is reported as 1.02 ± 0.036.

With CGTTGGGTCT the switch fluorescence ratio was 1 ± 0.018.

Sequence CGTTGGTCGC has a switch fluorescence ratio of 1.01 ± 0.016.

CGTTGTATCT was tested, and the switch fluorescence ratio was 1 ± 0.035.

CGTTGTGGGA gave a switch fluorescence ratio of 1.01 ± 0.038.

In the case of CGTTTAACGT, the switch fluorescence ratio is reported as 0.989 ± 0.047.

For CGTTTAATAA, the switch fluorescence ratio was 1.008 ± 0.0091.

For CGTTTACCGA, the switch fluorescence ratio was 0.942 ± 0.034.

Work on CGTTTACCTG yielded a switch fluorescence ratio of 0.983 ± 0.0042.

In the case of CGTTTAGGGA, the switch fluorescence ratio is reported as 1.004 ± 0.0026.

With CGTTTAGTCA the switch fluorescence ratio was 1.01 ± 0.023.

Work on CGTTTATGAG yielded a switch fluorescence ratio of 1.022 ± 0.0067.

CGTTTATGGT was tested, and the switch fluorescence ratio was 0.967 ± 0.022.

For CGTTTATGTA, the switch fluorescence ratio was 0.995 ± 0.04.

CGTTTATTCA gave a switch fluorescence ratio of 1.036 ± 0.0079.

CGTTTCACTA gave a switch fluorescence ratio of 0.9736 ± 0.0019.

Sequence CGTTTCAGAT has a switch fluorescence ratio of 1.02 ± 0.02.

For CGTTTCATGC, the switch fluorescence ratio was 1.05 ± 0.056.

Work on CGTTTCGAAT yielded a switch fluorescence ratio of 0.96 ± 0.027.

In the case of CGTTTCTTTG, the switch fluorescence ratio is reported as 0.966 ± 0.019.

For CGTTTGGAGC, the switch fluorescence ratio was 0.968 ± 0.031.

Sequence CGTTTGGCAG has a switch fluorescence ratio of 1.019 ± 0.0025.

For CGTTTGGCTT, the switch fluorescence ratio was 1.01 ± 0.008.

In the case of CGTTTGGTGT, the switch fluorescence ratio is reported as 1.0115 ± 1.5e-05.

Work on CGTTTGTCAG yielded a switch fluorescence ratio of 0.965 ± 0.033.

With CGTTTGTTCC the switch fluorescence ratio was 1.0348 ± 0.00023.

With CGTTTTACCG the switch fluorescence ratio was 1.02 ± 0.032.

For CGTTTTCTGT, the switch fluorescence ratio was 0.978 ± 0.024.

For CGTTTTTAGA, the switch fluorescence ratio was 0.967 ± 0.031.

Work on CTAAATATAT yielded a switch fluorescence ratio of 1.03 ± 0.013.

CTAAATATTA gave a switch fluorescence ratio of 1.031 ± 0.0049.

With CTAACGGGCT the switch fluorescence ratio was 0.995 ± 0.058.

CTAACGTATA gave a switch fluorescence ratio of 1.18 ± 0.036.

CTAACTGCAT showed a switch fluorescence ratio of 1.18 ± 0.031.

For CTAACTTATT, the switch fluorescence ratio was 1.01 ± 0.013.

Sequence CTAAGAAGCG has a switch fluorescence ratio of 1.1 ± 0.17.

With CTAAGAATAG the switch fluorescence ratio was 1.02 ± 0.021.

For CTAAGGGGCT, the switch fluorescence ratio was 1.01 ± 0.015.

CTAAGGGGGT showed a switch fluorescence ratio of 0.9503 ± 0.0032.

With CTAAGGTTGG the switch fluorescence ratio was 0.974 ± 0.034.

CTAATAGTT showed a switch fluorescence ratio of 1 ± 0.048.

CTAATATCTC showed a switch fluorescence ratio of 1.016 ± 0.01.

Sequence CTAATCATAA has a switch fluorescence ratio of 1 ± 0.052.

Sequence CTAATCTAGC has a switch fluorescence ratio of 1.045 ± 0.0017.

CTAATGGACC gave a switch fluorescence ratio of 1.01 ± 0.03.

For CTAATGGCTT, the switch fluorescence ratio was 0.977 ± 0.033.

With CTAATGGGAG the switch fluorescence ratio was 0.9726 ± 0.0092.

For CTAATGGGTT, the switch fluorescence ratio was 0.98 ± 0.037.

For CTAATGTTGT, the switch fluorescence ratio was 1.02 ± 0.028.

In the case of CTAATTCGAG, the switch fluorescence ratio is reported as 0.9919 ± 0.0026.

Sequence CTAATTGTAG has a switch fluorescence ratio of 0.9884 ± 0.0029.

CTACAATGGA showed a switch fluorescence ratio of 1 ± 0.029.

CTACATACGG gave a switch fluorescence ratio of 1.52 ± 0.02.

CTACATGACT showed a switch fluorescence ratio of 1.13 ± 0.025.

CTACATGTAA showed a switch fluorescence ratio of 1.03 ± 0.081.

With CTACCCTTTG the switch fluorescence ratio was 1.13 ± 0.038.

With CTACCGCCTA the switch fluorescence ratio was 1.39 ± 0.048.

Work on CTACGGGATT yielded a switch fluorescence ratio of 1.33 ± 0.43.

With CTACTCCGTT the switch fluorescence ratio was 1.29 ± 0.068.

CTACTGAAGG gave a switch fluorescence ratio of 0.983 ± 0.014.

With CTACTTATTT the switch fluorescence ratio was 1.02 ± 0.024.

CTACTTGATA showed a switch fluorescence ratio of 0.978 ± 0.017.

CTAGATTTGA gave a switch fluorescence ratio of 1 ± 0.024.

Sequence CTAGCATCCG has a switch fluorescence ratio of 1.03 ± 0.016.

CTAGGAGGGA showed a switch fluorescence ratio of 0.98 ± 0.013.
